Data set [1] concerns the target Lys29-linked diubiquitin, P0CG48.
In data set [2] the target is Lys63-linked diubiquitin (enzymatically assembled), P0CG48.
Data set [3] concerns the target Lys6-linked diubiquitin, P0CG48.

Chain of Lys63-linked diubiquitin (enzymatically assembled), P0CG48 (P0CG48 whole entry, looked up): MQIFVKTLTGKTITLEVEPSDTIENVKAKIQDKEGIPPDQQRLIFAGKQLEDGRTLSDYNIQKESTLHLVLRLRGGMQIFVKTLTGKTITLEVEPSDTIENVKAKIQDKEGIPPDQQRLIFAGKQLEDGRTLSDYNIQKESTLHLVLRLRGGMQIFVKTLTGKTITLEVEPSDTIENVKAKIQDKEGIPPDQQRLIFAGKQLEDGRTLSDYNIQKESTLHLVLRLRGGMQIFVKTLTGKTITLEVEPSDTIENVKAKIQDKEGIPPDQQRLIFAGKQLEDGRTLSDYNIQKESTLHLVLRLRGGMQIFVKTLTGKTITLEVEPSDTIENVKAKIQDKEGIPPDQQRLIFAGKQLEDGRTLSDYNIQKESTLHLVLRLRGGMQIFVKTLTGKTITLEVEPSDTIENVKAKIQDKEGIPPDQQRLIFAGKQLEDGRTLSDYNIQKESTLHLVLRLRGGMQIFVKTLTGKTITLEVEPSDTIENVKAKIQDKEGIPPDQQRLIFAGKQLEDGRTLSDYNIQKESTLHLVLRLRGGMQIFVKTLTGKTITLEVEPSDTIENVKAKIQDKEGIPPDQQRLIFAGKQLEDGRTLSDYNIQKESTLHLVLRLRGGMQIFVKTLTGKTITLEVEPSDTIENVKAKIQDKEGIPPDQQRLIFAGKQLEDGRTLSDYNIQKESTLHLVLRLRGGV
Chain of Lys6-linked diubiquitin, P0CG48 (P0CG48 whole entry, looked up): as above
Chain of Lys29-linked diubiquitin, P0CG48 (P0CG48 whole entry, looked up): as above

B1: USP5 (protein)
chain: MAELSEEALLSVLPTIRVPKAGDRVHKDECAFSFDTPESEGGLYICMNTFLGFGKQYVERHFNKTGQRVYLHLRRTRRPKEEDPATGTGDPPRKKPTRLAIGVEGGFDLSEEKFELDEDVKIVILPDYLEIARDGLGGLPDIVRDRVTSAVEALLSADSASRKQEVQAWDGEVRQVSKHAFSLKQLDNPARIPPCGWKCSKCDMRENLWLNLTDGSILCGRRYFDGSGGNNHAVEHYRETGYPLAVKLGTITPDGADVYSYDEDDMVLDPSLAEHLSHFGIDMLKMQKTDKTMTELEIDMNQRIGEWELIQESGVPLKPLFGPGYTGIRNLGNSCYLNSVVQVLFSIPDFQRKYVDKLEKIFQNAPTDPTQDFSTQVAKLGHGLLSGEYSKPVPESGDGERVPEQKEVQDGIAPRMFKALIGKGHPEFSTNRQQDAQEFFLHLINMVERNCRSSENPNEVFRFLVEEKIKCLATEKVKYTQRVDYIMQLPVPMDAALNKEELLEYEEKKRQAEEEKMALPELVRAQVPFSSCLEAYGAPEQVDDFWSTALQAKSVAVKTTRFASFPDYLVIQIKKFTFGLDWVPKKLDVSIEMPEELDISQLRGTGLQPGEEELPDIAPPLVTPDEPKGSLGFYGNEDEDSFCSPHFSSPTSPMLDESVIIQLVEMGFPMDACRKAVYYTGNSGAEAAMNWVMSHMDDPDFANPLILPGSSGPGSTSAAADPPPEDCVTTIVSMGFSRDQALKALRATNNSLERAVDWIFSHIDDLDAEAAMDISEGRSAADSISESVPVGPKVRDGPGKYQLFAFISHMGTSTMCGHYVCHIKKEGRWVIYNDQKVCASEKPPKDLGYIYFYQRVAS
With B1, the “cleavage in in vitro deubiquitinase assay (SDS-PAGE, silver stain)” value (from here on “cleavage”) in data set [1], in data set [2] and in data set [3] was “rapidly cleaves all chains types tested” each time.

B2: BAP1 (protein)
chain: MNKGWLELESDPGLFTLLVEDFGVKGVQVEEIYDLQSKCQGPVYGFIFLFKWIEERRSRRKVSTLVDDTSVIDDDIVNNMFFAHQLIPNSCATHALLSVLLNCSSVDLGPTLSRMKDFTKGFSPESKGYAIGNAPELAKAHNSHARPEPRHLPEKQNGLSAVRTMEAFHFVSYVPITGRLFELDGLKVYPIDHGPWGEDEEWTDKARRVIMERIGLATAGEPYHDIRFNLMAVVPDRRIKYEARLHVLKVNRQTVLEALQQLIRVTQPELIQTHKSQESQLPEESKSASNKSPLVLEANRAPAASEGNHTDGAEEAAGSCAQAPSHSPPNKPKLVVKPPGSSLNGVHPNPTPIVQRLPAFLDNHNYAKSPMQEEEDLAAGVGRSRVPVRPPQQYSDDEDDYEDDEEDDVQNTNSALRYKGKGTGKPGALSGSADGQLSVLQPNTINVLAEKLKESQKDLSIPLSIKTSSGAGSPAVAVPTHSQPSPTPSNESTDTASEIGSAFNSPLRSPIRSANPTRPSSPVTSHISKVLFGEDDSLLRVDCIRYNRAVRDLGPVISTGLLHLAEDGVLSPLALTEGGKGSSPSIRPIQGSQGSSSPVEKEVVEATDSREKTGMVRPGEPLSGEKYSPKELLALLKCVEAEIANYEACLKEEVEKRKKFKIDDQRRTHNYDEFICTFISMLAQEGMLANLVEQNISVRRRQGVSIGRLHKQRKPDRRKRSRPYKAKRQ
As to B2, the “cleavage” value in data set [1] and in data set [3] was “failed to cleave” each time.

B3: ubiquitin C-terminal hydrolase-L3 (UCH-L3) (protein)
chain: MEGQRWLPLEANPEVTNQFLKQLGLHPNWQFVDVYGMDPELLSMVPRPVCAVLLLFPITEKYEVFRTEEEEKIKSQGQDVTSSVYFMKQTISNACGTIGLIHAIANNKDKMHFESGSTLKKFLEESVSMSPEERARYLENYDAIRVTHETSAHEGQTEAPSIDEKVDLHFIALVHVDGHLYELDGRKPFPINHGETSDETLLEDAIEVCKKFMERDPDELRFNAIALSAA
On to B3, for which the “cleavage” value in data set [1] and in data set [3] was “failed to cleave” throughout.

B4: A20 (protein)
chain: MAEQVLPQALYLSNMRKAVKIRERTPEDIFKPTNGIIHHFKTMHRYTLEMFRTCQFCPQFREIIHKALIDRNIQATLESQKKLNWCREVRKLVALKTNGDGNCLMHATSQYMWGVQDTDLVLRKALFSTLKETDTRNFKFRWQLESLKSQEFVETGLCYDTRNWNDEWDNLIKMASTDTPMARSGLQYNSLEEIHIFVLCNILRRPIIVISDKMLRSLESGSNFAPLKVGGIYLPLHWPAQECYRYPIVLGYDSHHFVPLVTLKDSGPEIRAVPLVNRDRGRFEDLKVHFLTDPENEMKEKLLKEYLMVIEIPVQGWDHGTTHLINAAKLDEANLPKEINLVDDYFELVQHEYKKWQENSEQGRRE
With B4, the “cleavage” value is recorded as “also did not cleave Lys29 linkages” in data set [1] and “did not cleave Lys6-linked diubiquitin” in data set [3].

B5: USP21 (protein)
chain: SDDKMAHHTLLLGSGHVGLRNLGNTCFLNAVLQCLSSTRPLRDFCLRRDFRQEVPGGGRAQELTEAFADVIGALWHPDSCEAVNPTRFRAVFQKYVPSFSGYSQQDAQEFLKLLMERLHLEINRRGRRAPPILANGPVPSPPRRGGALLEEPELSDDDRANLMWKRYLEREDSKIVDLFVGQLKSCLKCQACGYRSTTFEVFCDLSLPIPKKGFAGGKVSLRDCFNLFTKEEELESENAPVCDRCRQKTRSTKKLTVQRFPRILVLHLNRFSASRGSIKKSSVGVDFPLQRLSLGDFASDKAGSPVYQLYALCNHSGSVHYGHYTALCRCQTGWHVYNDSRVSPVSENQVASSEGYVLFYQLMQEPPRCL
For the protein B5, the “cleavage” value in data set [1], in data set [2] and in data set [3] was “rapidly cleaves all chain types tested” in each case.

B6: AMSH (protein)
chain: MSDHGDVSLPPEDRVRALSQLGSAVEVNEDIPPRRYFRSGVEIIRMASIYSEEGNIEHAFILYNKYITLFIEKLPKHRDYKSAVIPEKKDTVKKLKEIAFPKAEELKAELLKRYTKEYTEYNEEKKKEAEELARNMAIQQELEKEKQRVAQQKQQQLEQEQFHAFEEMIRNQELEKERLKIVQEFGKVDPGLGGPLVPDLEKPSLDVFPTLTVSSIQPSDCHTTVRPAKPPVVDRSLKPGALSNSESIPTIDGLRHVVVPGRLCPQFLQLASANTARGVETCGILCGKLMRNEFTITHVLIPKQSAGSDYCNTENEEELFLIQDQQGLITLGWIHTHPTQTAFLSSVDLHTHCSYQMMLPESVAIVCSPKFQETGFFKLTDHGLEEISSCRQKGFHPHSKDPPLFCSCSHVTVVDRAVTITDLR
For the protein B6, the “cleavage” value in data set [1] was “inactive against Lys6- and Lys29-linked diubiquitin”; in data set [2], “cleaves Lys63-linked diubiquitin under identical reaction conditions with high activity”; in data set [3] it was “inactive against Lys6- and Lys29-linked diubiquitin”.

B7: Cezanne (protein)
chain: PPSFSEGSGGSRTPEKGFSDREPTRPPRPILQRQDDIVQEKRLSRGISHASSSIVSLARSHVSSNGGGGGSNEHPLEMPICAFQLPDLTVYNEDFRSFIERDLIEQSMLVALEQAGRLNWWVSVDPTSQRLLPLATTGDGNCLLHAASLGMWGFHDRDLMLRKALYALMEKGVEKEALKRRWRWQQTQQNKESGLVYTEDEWQKEWNELIKLASSEPRMHLGTNGANCGGVESSEEPVYESLEEFHVFVLAHVLRRPIVVVADTMLRDSGGEAFAPIPFGGIYLPLEVPASQCHRSPLVLAYDQAHFSALVSMEQKENTKEQAVIPLTDSEYKLLPLHFAVDPGKGWEWGKDDSDNVRLASVILSLEVKLHLLHSYMNVKWIPLSSDAQAPLAQ
B7: the figures for the “cleavage” value in data set [1] and in data set [3] were “also did not cleave Lys29 linkages” and “did not cleave Lys6-linked diubiquitin”, respectively.

B8: TRABID (protein)
chain: LEVDFKKLKQIKNRMKKTDWLFLNACVGVVEGDLAAIEAYKSSGGDIARQLTADEVRLLNRPSAFDVGYTLVHLAIRFQRQDMLAILLTEVSQQAAKCIPAMVCPELTEQIRREIAASLHQRKGDFACYFLTDLVTFTLPADIEDLPPTVQEKLFDEVLDRDVQKELEEESPIINWSLELATRLDSRLYALWNRTAGDCLLDSVLQATWGIYDKDSVLRKALHDSLHDCSHWFYTRWKDWESWYSQSFGLHFSLREEQWQEDWAFILSLASQPGASLEQTHIFVLAHILRRPIIVYGVKYYKSFRGETLGYTRFQGVYLPLLWEQSFCWKSPIALGYTRGHFSALVAMENDGYGNRGAGANLNTDDDVTITFLPLVDSERKLLHVHFLSAQELGNEEQQEKLLREWLDCCVTEGGVLVAMQKSSRRRNHPLVTQMVEKWLDRYRQIRPCTSLS
In the case of B8, in data set [1], the “cleavage” value is given as “cleaves Lys29 linkages more rapidly than Lys63 linkages”; the “fold better substrate than Lys63-linked diubiquitin” value was 40-fold better substrate; the “specificity constant (kcat/Km), quantitative western blot” value was 1.0 (±0.2)×10^5 M^-1 s^-1. In data set [2], the “cleavage” value is “cleaves Lys29 linkages more rapidly than Lys63 linkages”; the “specificity constant (kcat/Km), fluorescence anisotropy” value is recorded as 1.7 (±2.0)×10^3 M^-1 s^-1; the “specificity constant (kcat/Km), quantitative western blot” value is 2.5 (±0.4)×10^3 M^-1 s^-1. Moreover, in data set [3], the “cleavage” value is reported as “did not cleave Lys6-linked diubiquitin”.

B9: CYLD (protein)
chain: GLEIMIGKKKGIQGHYNSCYLDSTLFCLFAFSSVLDTVLLRPKEKNDVEYYSETQELLRTEIVNPLRIYGYVCATKIMKLRKILEKVEAASGFTSEEKDPEEFLNILFHHILRVEPLLKIRSAGQKVQDCYFYQIFMEKNEKVGVPTIQQLLEWSFINSNLKFAEAPSCLIIQMPRFGKDFKLFKKIFPSLELNITDLLEDTPRQCRICGGLAMYECRECYDDPDISAGKIKQFCKTCNTQVHLHPKRLNHKYNPVSLPKDLPDWDWRHGCIPCQNMELFAVLCIETSHYVAFVKYGKDDSAWLFFDSMADRDGGQNGFNIPQVTPCPEVGEYLKMSLEDLHSLDSRRIQGCARRLLCDAYMCMYQSPTMSLYK
As to B9, the “cleavage” value is “shows little or no activity against the Lys6 and Lys29 linkage” in data set [1]; “efficiently cleaves its preferred Lys63 linkage” in data set [2]; “shows little or no activity against the Lys6 and Lys29 linkage” in data set [3].

Values taken from patent US20160304571.
